Assay results taken from US20240261333A1, “NOVEL TARGETS FOR ENHANCING ANTI-TUMOR IMMUNITY” (THE BROAD INSTITUTE, INC., priority 2021, published 2024).

What was measured:
RPL35 = RPL35 (UniProt P42766); experiment: co-IP, anti-FLAG, N-FLAG B3GNT2 cell lysate, mass spectrometry
HIST1H1E = HIST1H1E (UniProt P10412); experiment: as above
DNAJA2 = DNAJA2 (UniProt O60884); experiment: as above
MTDH = MTDH (UniProt Q86UE4); experiment: as above
TAGLN = TAGLN (UniProt Q01995); experiment: as above
CDSN = CDSN (UniProt Q15517); experiment: as above
Sequence of CDSN (Q15517 33-529 limits assumed): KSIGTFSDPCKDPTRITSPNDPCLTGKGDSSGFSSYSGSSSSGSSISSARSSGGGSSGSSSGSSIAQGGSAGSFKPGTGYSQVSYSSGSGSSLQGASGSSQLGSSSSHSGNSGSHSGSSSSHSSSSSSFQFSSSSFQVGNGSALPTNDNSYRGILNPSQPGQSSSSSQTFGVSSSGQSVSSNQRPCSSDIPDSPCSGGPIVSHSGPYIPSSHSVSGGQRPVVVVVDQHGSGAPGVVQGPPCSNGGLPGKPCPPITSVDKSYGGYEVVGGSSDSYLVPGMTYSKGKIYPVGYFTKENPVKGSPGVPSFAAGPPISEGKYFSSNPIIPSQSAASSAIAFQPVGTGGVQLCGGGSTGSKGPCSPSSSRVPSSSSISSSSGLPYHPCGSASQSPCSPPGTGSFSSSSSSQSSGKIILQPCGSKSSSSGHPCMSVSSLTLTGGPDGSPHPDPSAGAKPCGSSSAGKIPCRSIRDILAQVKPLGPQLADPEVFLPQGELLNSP

PBXIP1 = PBXIP1 (UniProt Q96AQ6); experiment: as above
RPL27A = RPL27A (UniProt P46776); experiment: as above
MTCH2 = MTCH2 (UniProt Q9Y6C9); experiment: as above
ITGB3 = ITGB3 (UniProt P05106); experiment: as above
RPL3 = RPL3 (UniProt P39023); experiment: as above
EMD = EMD (UniProt P50402); experiment: as above
PSMA7 = PSMA7 (UniProt O14818); experiment: as above
RPL19 = RPL19 (UniProt P84098); experiment: as above
TMEM59 = TMEM59 (UniProt Q9BXS4); experiment: as above
POF1B = POF1B (UniProt Q8WVV4); experiment: as above
STAU2 (human) = STAU2 (human) (UniProt Q9NUL3); experiment: co-IP with control IgG, mass spectrometry; lysate of cells with N-FLAG B3GNT2
Sequence of STAU2 (human) (Q9NUL3 whole entry): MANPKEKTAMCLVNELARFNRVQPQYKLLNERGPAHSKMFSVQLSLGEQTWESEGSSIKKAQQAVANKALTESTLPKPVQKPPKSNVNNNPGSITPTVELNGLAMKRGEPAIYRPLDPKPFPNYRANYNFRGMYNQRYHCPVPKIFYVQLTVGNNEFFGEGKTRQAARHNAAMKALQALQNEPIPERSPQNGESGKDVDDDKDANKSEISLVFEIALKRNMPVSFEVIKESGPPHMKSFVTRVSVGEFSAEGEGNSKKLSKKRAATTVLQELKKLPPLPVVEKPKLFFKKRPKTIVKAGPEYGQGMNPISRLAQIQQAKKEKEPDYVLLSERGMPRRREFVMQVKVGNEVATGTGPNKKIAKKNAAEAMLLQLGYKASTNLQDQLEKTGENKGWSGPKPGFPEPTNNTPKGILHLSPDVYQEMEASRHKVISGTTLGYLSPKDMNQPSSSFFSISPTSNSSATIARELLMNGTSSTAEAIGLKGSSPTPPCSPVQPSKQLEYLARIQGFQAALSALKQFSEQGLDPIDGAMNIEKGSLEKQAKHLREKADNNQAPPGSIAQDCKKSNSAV

RPL32 (human) = RPL32 (human) (UniProt P62910); experiment: as above
RPS27 (human) = RPS27 (human) (UniProt P42677); experiment: as above
RPL26 (human) = RPL26 (human) (UniProt P61254); experiment: as above
MARS (human) = MARS (human) (UniProt P56192); experiment: as above
RPS3 (human) = RPS3 (human) (UniProt P23396); experiment: co-IP, IgG control, lysate of cells with N-FLAG B3GNT2; mass spectrometry
RPS28 (human) = RPS28 (human) (UniProt P62857); experiment: as above
CAT (human) = CAT (human) (UniProt P04040); experiment: as above
Sequence of CAT (human) (P04040 2-527 limits assumed): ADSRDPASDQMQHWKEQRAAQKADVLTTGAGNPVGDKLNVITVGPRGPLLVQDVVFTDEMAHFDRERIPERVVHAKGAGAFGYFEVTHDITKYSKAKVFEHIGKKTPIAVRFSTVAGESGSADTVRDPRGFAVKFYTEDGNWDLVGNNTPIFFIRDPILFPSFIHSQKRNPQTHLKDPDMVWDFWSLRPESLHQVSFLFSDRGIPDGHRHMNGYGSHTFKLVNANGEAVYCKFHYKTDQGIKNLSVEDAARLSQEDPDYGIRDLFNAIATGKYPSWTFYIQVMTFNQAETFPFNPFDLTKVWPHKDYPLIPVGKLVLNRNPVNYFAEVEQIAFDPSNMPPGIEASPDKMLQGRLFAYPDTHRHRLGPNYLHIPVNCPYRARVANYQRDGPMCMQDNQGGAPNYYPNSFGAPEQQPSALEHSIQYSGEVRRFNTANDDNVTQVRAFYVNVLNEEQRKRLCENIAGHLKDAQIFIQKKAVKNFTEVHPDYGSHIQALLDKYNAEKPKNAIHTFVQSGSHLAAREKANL

RPL13 (human) = RPL13 (human) (UniProt P26373); experiment: as above
ATXN2 (human) = ATXN2 (human) (UniProt Q99700); experiment: as above
HADHB (human) = HADHB (human) (UniProt P55084); experiment: as above
FUBP3 (human) = FUBP3 (human) (UniProt Q96I24); experiment: as above
KRT6B (human) = KRT6B (human) (UniProt P04259); experiment: as above
ARPC4 (human) = ARPC4 (human) (UniProt P59998); experiment: as above
HUWE1 (human) = HUWE1 (human) (UniProt Q7Z6Z7); experiment: as above
CSE1L (human) = CSE1L (human) (UniProt P55060); experiment: as above
MYH11 (human) = MYH11 (human) (UniProt P35749); experiment: as above
Sequence of MYH11 (human) (P35749 other isoform, or with tags, fused parts or gaps limits assumed): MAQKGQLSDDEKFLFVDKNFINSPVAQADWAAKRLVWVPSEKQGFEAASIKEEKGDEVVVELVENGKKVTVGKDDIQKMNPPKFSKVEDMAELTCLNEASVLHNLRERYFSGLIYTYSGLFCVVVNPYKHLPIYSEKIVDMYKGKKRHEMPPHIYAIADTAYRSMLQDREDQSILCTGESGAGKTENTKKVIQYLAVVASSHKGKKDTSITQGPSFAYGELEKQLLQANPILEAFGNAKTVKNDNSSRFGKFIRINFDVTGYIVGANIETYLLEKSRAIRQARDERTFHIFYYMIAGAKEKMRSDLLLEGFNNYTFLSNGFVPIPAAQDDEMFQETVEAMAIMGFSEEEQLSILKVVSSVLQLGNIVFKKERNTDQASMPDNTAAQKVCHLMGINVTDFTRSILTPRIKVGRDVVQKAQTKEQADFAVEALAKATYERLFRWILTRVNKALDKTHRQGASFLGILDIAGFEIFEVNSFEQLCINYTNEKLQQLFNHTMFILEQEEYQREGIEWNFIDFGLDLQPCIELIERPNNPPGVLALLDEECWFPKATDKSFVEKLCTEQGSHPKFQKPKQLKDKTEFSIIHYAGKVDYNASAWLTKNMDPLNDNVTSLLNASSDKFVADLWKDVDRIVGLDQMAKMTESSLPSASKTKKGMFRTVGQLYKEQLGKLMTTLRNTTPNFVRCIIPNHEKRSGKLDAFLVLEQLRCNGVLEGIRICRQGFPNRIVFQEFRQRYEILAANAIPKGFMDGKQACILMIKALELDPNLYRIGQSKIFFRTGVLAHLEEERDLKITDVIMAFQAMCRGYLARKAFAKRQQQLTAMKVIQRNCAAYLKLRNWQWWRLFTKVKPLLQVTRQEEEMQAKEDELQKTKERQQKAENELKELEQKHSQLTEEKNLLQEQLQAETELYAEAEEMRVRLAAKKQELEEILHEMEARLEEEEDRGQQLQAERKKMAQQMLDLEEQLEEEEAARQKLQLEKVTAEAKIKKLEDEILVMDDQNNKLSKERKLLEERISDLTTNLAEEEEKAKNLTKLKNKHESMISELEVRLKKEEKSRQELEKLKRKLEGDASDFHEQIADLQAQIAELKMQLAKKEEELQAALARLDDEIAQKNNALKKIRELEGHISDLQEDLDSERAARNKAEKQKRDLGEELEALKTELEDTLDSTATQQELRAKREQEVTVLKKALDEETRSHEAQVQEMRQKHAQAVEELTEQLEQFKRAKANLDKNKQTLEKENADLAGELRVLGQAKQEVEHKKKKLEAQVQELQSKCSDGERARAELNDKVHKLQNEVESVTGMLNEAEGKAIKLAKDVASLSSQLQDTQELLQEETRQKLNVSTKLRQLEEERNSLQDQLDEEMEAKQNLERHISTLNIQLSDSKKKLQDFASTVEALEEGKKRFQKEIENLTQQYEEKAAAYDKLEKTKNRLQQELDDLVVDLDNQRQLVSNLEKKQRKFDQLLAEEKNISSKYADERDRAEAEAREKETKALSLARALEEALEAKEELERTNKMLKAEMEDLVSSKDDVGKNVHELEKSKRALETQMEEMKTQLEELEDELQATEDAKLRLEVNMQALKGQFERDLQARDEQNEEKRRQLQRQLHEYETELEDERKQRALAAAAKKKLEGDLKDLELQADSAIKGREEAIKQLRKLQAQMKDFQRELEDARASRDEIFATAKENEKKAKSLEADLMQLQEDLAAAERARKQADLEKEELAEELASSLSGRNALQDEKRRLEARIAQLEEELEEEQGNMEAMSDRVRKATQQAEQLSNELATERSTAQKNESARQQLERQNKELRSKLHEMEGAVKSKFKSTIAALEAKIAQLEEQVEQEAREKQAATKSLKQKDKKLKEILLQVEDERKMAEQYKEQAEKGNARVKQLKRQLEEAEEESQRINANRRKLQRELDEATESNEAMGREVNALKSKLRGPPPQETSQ

SAMM50 (human) = SAMM50 (human) (UniProt Q9Y512); experiment: as above
DNAJC3 (human) = DNAJC3 (human) (UniProt Q13217); experiment: as above
Sequence of DNAJC3 (human) (Q13217 32-504 limits assumed): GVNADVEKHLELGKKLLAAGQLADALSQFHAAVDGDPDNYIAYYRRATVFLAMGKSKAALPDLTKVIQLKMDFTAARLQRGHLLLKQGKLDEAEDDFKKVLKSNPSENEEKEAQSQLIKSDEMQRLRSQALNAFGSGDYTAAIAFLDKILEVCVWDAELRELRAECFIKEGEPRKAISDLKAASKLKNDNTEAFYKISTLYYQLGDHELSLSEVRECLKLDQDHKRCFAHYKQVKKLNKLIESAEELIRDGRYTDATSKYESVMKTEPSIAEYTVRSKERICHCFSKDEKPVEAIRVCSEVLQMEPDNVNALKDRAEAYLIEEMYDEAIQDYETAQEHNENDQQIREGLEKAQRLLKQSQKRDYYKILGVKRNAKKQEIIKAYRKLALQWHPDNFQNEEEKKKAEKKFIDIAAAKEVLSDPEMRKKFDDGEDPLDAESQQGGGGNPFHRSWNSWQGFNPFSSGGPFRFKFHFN

PARP1 (human) = PARP1 (human) (UniProt P09874); experiment: as above
PUM1 (human) = PUM1 (human) (UniProt Q14671); experiment: as above
RPL18 (human) = RPL18 (human) (UniProt Q07020); experiment: as above

Sequence of HIST1H1E (P10412 2-219 limits assumed): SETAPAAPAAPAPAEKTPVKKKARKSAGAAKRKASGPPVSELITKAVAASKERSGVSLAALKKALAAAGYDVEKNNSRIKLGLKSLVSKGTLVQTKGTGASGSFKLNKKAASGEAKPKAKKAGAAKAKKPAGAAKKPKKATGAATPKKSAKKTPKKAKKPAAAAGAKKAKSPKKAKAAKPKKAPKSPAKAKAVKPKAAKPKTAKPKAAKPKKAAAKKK
Sequence of DNAJA2 (O60884 1-409 limits assumed): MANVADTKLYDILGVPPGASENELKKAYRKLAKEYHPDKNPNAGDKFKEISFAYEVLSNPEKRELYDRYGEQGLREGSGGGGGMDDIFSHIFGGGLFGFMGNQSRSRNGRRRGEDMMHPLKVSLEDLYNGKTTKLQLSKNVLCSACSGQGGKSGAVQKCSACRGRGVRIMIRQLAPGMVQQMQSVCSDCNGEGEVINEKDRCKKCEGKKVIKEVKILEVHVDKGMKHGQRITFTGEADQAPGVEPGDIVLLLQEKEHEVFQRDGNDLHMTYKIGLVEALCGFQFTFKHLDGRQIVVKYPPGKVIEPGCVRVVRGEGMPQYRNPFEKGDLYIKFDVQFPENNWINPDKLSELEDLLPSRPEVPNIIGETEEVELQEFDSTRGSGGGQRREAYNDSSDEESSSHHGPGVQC
Sequence of TAGLN (Q01995 2-201 limits assumed): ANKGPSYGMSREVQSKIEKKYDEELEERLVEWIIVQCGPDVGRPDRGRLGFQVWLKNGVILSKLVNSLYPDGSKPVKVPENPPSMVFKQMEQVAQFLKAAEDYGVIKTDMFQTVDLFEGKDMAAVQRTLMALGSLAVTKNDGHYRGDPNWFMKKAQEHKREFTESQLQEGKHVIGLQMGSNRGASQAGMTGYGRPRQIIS

Q: For “N-terminal FLAG tagged B3GNT2 (from UniProt Q9NY97 1-397) (enzyme)”, which co-IP mass spectrometry count (RPL35) is on record?
A: The co-IP mass spectrometry count was 7.

Q: And the co-IP mass spectrometry count (HIST1H1E)?
A: Its co-IP mass spectrometry count is 6.

Q: And the co-IP mass spectrometry count (DNAJA2)?
A: The co-IP mass spectrometry count was 3.

Q: What about the co-IP mass spectrometry count (MTDH) of the same substance?
A: Its co-IP mass spectrometry count is 0.

Q: What about the co-IP mass spectrometry count (TAGLN) of the same substance?
A: Its co-IP mass spectrometry count is 2.

Q: And the co-IP mass spectrometry count (CDSN)?
A: Its co-IP mass spectrometry count is 5.

Q: What about the co-IP mass spectrometry count (PBXIP1) of the same substance?
A: Its co-IP mass spectrometry count is 2.

Q: And the co-IP mass spectrometry count (RPL27A)?
A: Its co-IP mass spectrometry count is 7.

Q: And the co-IP mass spectrometry count (MTCH2)?
A: Its co-IP mass spectrometry count is 4.

Q: What about the co-IP mass spectrometry count (ITGB3) of the same substance?
A: The co-IP mass spectrometry count was 3.

Q: And the co-IP mass spectrometry count (RPL3)?
A: Its co-IP mass spectrometry count is 8.

Q: What about the co-IP mass spectrometry count (EMD) of the same substance?
A: Its co-IP mass spectrometry count is 2.

Q: And the co-IP mass spectrometry count (PSMA7)?
A: The co-IP mass spectrometry count was 4.

Q: And the co-IP mass spectrometry count (RPL19)?
A: The co-IP mass spectrometry count was 8.

Q: And the co-IP mass spectrometry count (TMEM59)?
A: Its co-IP mass spectrometry count is 6.

Q: And the co-IP mass spectrometry count (POF1B)?
A: Its co-IP mass spectrometry count is 5.

Q: How did the co-IP mass spectrometry count (STAU2 (human)) turn out when “IgG control (Millipore Sigma 12-371) (antibody)” was run?
A: The co-IP mass spectrometry count was 0.

Q: What about the co-IP mass spectrometry count (RPL32 (human)) of the same substance?
A: Its co-IP mass spectrometry count is 0.

Q: What about the co-IP mass spectrometry count (RPS27 (human)) of the same substance?
A: Its co-IP mass spectrometry count is 0.

Q: What about the co-IP mass spectrometry count (RPL26 (human)) of the same substance?
A: Its co-IP mass spectrometry count is 5.

Q: And the co-IP mass spectrometry count (MARS (human))?
A: The co-IP mass spectrometry count was 0.

Q: And the co-IP mass spectrometry count (RPS3 (human))?
A: The co-IP mass spectrometry count was 13.

Q: What about the co-IP mass spectrometry count (RPS28 (human)) of the same substance?
A: The co-IP mass spectrometry count was 0.

Q: What about the co-IP mass spectrometry count (CAT (human)) of the same substance?
A: Its co-IP mass spectrometry count is 2.

Q: And the co-IP mass spectrometry count (RPL13 (human))?
A: Its co-IP mass spectrometry count is 6.

Q: What about the co-IP mass spectrometry count (ATXN2 (human)) of the same substance?
A: The co-IP mass spectrometry count was 3.

Q: And the co-IP mass spectrometry count (HADHB (human))?
A: Its co-IP mass spectrometry count is 0.

Q: And the co-IP mass spectrometry count (FUBP3 (human))?
A: Its co-IP mass spectrometry count is 8.

Q: What about the co-IP mass spectrometry count (KRT6B (human)) of the same substance?
A: The co-IP mass spectrometry count was 316.

Q: What about the co-IP mass spectrometry count (ARPC4 (human)) of the same substance?
A: The co-IP mass spectrometry count was 0.

Q: What about the co-IP mass spectrometry count (HUWE1 (human)) of the same substance?
A: Its co-IP mass spectrometry count is 0.

Q: And the co-IP mass spectrometry count (CSE1L (human))?
A: Its co-IP mass spectrometry count is 0.

Q: And the co-IP mass spectrometry count (MYH11 (human))?
A: Its co-IP mass spectrometry count is 3.

Q: What about the co-IP mass spectrometry count (SAMM50 (human)) of the same substance?
A: The co-IP mass spectrometry count was 0.

Q: What about the co-IP mass spectrometry count (DNAJC3 (human)) of the same substance?
A: The co-IP mass spectrometry count was 0.

Q: And the co-IP mass spectrometry count (PARP1 (human))?
A: Its co-IP mass spectrometry count is 0.

Q: What about the co-IP mass spectrometry count (PUM1 (human)) of the same substance?
A: The co-IP mass spectrometry count was 0.

Q: And the co-IP mass spectrometry count (RPL18 (human))?
A: Its co-IP mass spectrometry count is 5.
